# Data from EP1262190A1 (Takeda Chemical Industries, Ltd., dated 2001).
# Where no end group is shown, it is not given here.
# How the values were obtained:
# human 0T7T022 receptor = human 0T7T022 receptor (human); assay: cell-based or functional assay
# [1] = molecular target: rat cerebellum-derived novel G protein-coupled receptor protein r0T7T022L (rat); assay: cell-based or functional assay
# human 0T7T022 receptor (human), sequence (Q9GZQ6 whole entry): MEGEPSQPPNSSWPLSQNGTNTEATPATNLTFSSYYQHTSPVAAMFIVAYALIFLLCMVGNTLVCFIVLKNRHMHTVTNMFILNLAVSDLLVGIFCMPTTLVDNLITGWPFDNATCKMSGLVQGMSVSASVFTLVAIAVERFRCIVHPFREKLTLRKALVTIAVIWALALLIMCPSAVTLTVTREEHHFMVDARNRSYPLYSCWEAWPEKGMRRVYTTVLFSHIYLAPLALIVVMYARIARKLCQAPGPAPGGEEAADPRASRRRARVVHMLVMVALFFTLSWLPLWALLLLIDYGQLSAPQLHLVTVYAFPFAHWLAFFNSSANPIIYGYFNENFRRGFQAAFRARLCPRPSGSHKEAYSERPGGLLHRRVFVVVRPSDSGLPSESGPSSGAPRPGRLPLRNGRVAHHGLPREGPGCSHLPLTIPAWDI
binder,measurement,setting,value
LPLRF-NH2 [LPLRFamide (peptide shown by Leu-Pro-Leu-Arg-Phe-NH2)],"ED50, inhibition of the cAMP level increased by forskolin",human 0T7T022 receptor,36 nM
NPFF [NPFF (peptide shown by Asn-Pro-Phe-Phe)],"ED50, inhibition of the cAMP level increased by forskolin",human 0T7T022 receptor,140 nM
MPHSFANLPLRF-NH2 [peptide MPHSFANLPLRFamide (Met-Pro-His-Ser-Phe-Ala-Asn-Leu-Pro-Leu-Arg-Phe-NH2)],IC50 of inhibiting the cAMP production (forskolin-stimulated),[1],0.5 nM
same,"ED50, inhibition of the cAMP level increased by forskolin",human 0T7T022 receptor,4.5 nM
PQRF-NH2 [PQRFamide (peptide shown by Pro-Gln-Arg-Phe-NH2)],"ED50, inhibition of the cAMP level increased by forskolin",human 0T7T022 receptor,≥ 1000 nM
